Assay results taken from US20200231956.

Biological target: dipeptides with a proline at the second position

B1: aminopeptidase T from Thermus aquaticus, with a Cys added at the N-terminus and a 6xHis at the C-terminus (protein)
chain: MCDAFTENLNKLAELAIRVGLNLEEGQEIVATAPIEAVDFVRLLAEKAYENGASLFTVLYGDNLIARKRLALVPEAHLDRAPAWLYEGMAKAFHEGAARLAVSGNDPKALEGLPPERVGRAQQAQSRAYRPTLSAITEFVTNWTIVPFAHPGWAKAVFPGLPEEEAVQRLWQAIFQATRVDQEDPVAAWEAHNRVLHAKVAFLNEKRFHALHFQGPGTDLTVGLAEGHLWQGGATPTKKGRLCNPNLPTEEVFTAPHRERVEGVVRASRPLALSGQLVEGLWARFEGGVAVEVGAEKGEEVLKKLLDTDEGARRLGEVALVPADNPIAKTGLVFFDTLFDENAASHIAFGQAYAENLEGRPSGEEFRRRGGNESMVHVDWMIGSEEVDVDGLLEDGTRVPLMRRGRWVIHHHHHH
In the case of B1, the “aminopeptidase assay, cleavage of the N-terminal amino acid” value is reported as “TaqAPT cleaves dipeptides even with a proline at the second position”.
